Legend:
[1] = tested on: GRP78/BiP; assay: Co-immunoprecipitation with endogenous GRP78/BiP; assay type: binding
Description: 22Rv.1 cells were used for interaction studies of endogenous Bag-1 and GRP78/BiP, while for the in vivo interaction of the Bag-1 peptide and GRP78/BiP, HEK-293 cells were transfected with a plasmid encoding HA-tagged Bag-1 peptide. Twenty-four hours prior to the experiment, the cells in both cases were washed with phosphate buffered saline (PBS) and treated with 20 mM Dithiobis(succinimidyl propionate) (DSP) in PBS for 30 min at room temperature. The reaction was stopped with 20 mM Tris and the cells were lysed in 50 mM Tris-HCl pH 7.4, 120 mM NaCl, 1 mM EDTA, 0.4% NP40 and 1% protease inhibitor cocktail. Immunoprecipitation of GRP78/BiP was carried out overnight at 4°C with anti-GRP78 antibody coupled to sepharose A beads (Abcam, ab21685). Binding of endogenous Bag-1 or of HA-peptide was determined by Western blotting using a Bag-1 or an HA specific antibody.
Figure 1 Bag-1 proteins interact with the molecular chaperone GRP78/BiP. A. The Bag-1 family of proteins binds GRP78/BiP. GST pull-down assay was performed incubating 5 µg each of GST-fused Bag-1 proteins with 400 µg of 22Rv.1 cell lysate. […]
Figure 2 Identification of Bag-1 peptide interfering with the action of GRP78/BiP. […] Western blot analysis with an HA antibody to detected the Bag-1 mutants is shown. […] Thereafter luciferase activity was measured. […]

[2] = tested on: GRP78/BiP; assay: In vitro ATPase activity assay of GRP78; assay type: biochemical; conditions: GRP78 0.5 µg, GST purified Bag-1 or Bag-1 peptide up to 1.5 µg, 1 h, 37°C
Description: In vitro ATPase activity assay of GRP78. A. ATPase activity was measured with the ATPase assay kit from Innova Bioscience (Cambridge, UK). The reaction mixture contained GRP78 (0.5 µg) increasing amounts of GST purified Bag-1 (continuous line) or Bag-1 peptide (dashed line) up to 1.5 µg. The reaction was carried out for 1 h at 37°C with purified ATP according to the manufacturer’s instructions. Each point represents the mean value of three independent experiments ± SEM. B. The purity of protein preparation used for the assay. Shown are 5 µg of purified GRP78 (StressMarq Biosciences, Victoria, Canada), GST Bag-1 peptide, and GST-Bag-1 used in the assay following SDS PAGE and Coomassie blue staining. (TIF) Click here for additional data file.

[3] = tested on: ATPase domain of GRP78/BiP; assay: GST pull-down with ATPase domain of GRP78/BiP; assay type: binding; conditions: 10 µg GST-fused ATPase domain, lysate of HEK-293 cells; for the 68 amino acid peptide results not shown

B1: Bag-1: cochaperone Bag-1, HA-tagged (pcDNA3.1-HA-Bag-1), or endogenous (protein)
chain: TPLSALGIQDGCRVMLIGKKNSPQEEVELKKLKHLEKSVEKIADQLEELNKELTGIQQGFLPKDLQAE
modifications: left off: HA, end not stated, kept
notes: cochaperone Bag-1, HA-tagged (pcDNA3.1-HA-Bag-1), or endogenous
- in vivo interaction with GRP78/BiP ([1]; 22Rv.1 cells, endogenous Bag-1): bind to GRP78/BiP in 22Rv.1 cells
- ATPase activity of GRP78/BiP [2]: increased this enzymatic activity
- interaction with ATPase domain of GRP78/BiP [3]: interacted not only with the full length GRP78/BiP but also with its ATPase and SBD

B2: Bag-1 peptide: internal sequence of 68 amino acids of Bag-1 (Bag1-L 202–269), HA-tagged, expressed from pcDNA3 (peptide)
chain: B1 chain
modifications: also: HA tag, end not given here
- in vivo interaction with endogenous GRP78/BiP ([1]; HEK-293 cells expressing HA-tagged Bag-1 peptide, DSP cross-linked): interacted with endogenous GRP78/BiP protein
- ATPase activity of GRP78/BiP [2]: did not have any effect on the ATPase activity of GRP78/BiP
- interaction with ATPase domain of GRP78/BiP [3]: interacted with both the SBD and ATPase binding domains of GRP78
